The subject of the data set is Escherichia coli TOP10. In words: shrunken log2 fold change of peptide-encoding DNA abundance (4.5 h post-induction vs induction); higher = less antimicrobial activity (less host growth inhibition). The conditions noted are these: time post-induction: 4.5 h; library: site-saturation at positions 5, 18, 19, 20.
Regarding RRIRARPPRLPRPRPRPYAVPRP, the “shrunken log2 fold change” value is -0.0829.

Regarding RRIRRRPPRLPRPRPRPQIHPRP, the “shrunken log2 fold change” value is -0.515.

With RRIRYRPPRLPRPRPRPEGMPRP, the “shrunken log2 fold change” value was 0.0329.

Turning to RRIRDRPPRLPRPRPRPTFFPRP, the “shrunken log2 fold change” value is 2.16.

For RRIRYRPPRLPRPRPRPWSYPRP, the “shrunken log2 fold change” value was -0.23.

Consider RRIRCRPPRLPRPRPRPFRFPRP, for which the “shrunken log2 fold change” value is -0.83.

Consider RRIRARPPRLPRPRPRPAKIPRP, for which the “shrunken log2 fold change” value was found to be 0.321.

As to RRIRVRPPRLPRPRPRPPRWPRP, the “shrunken log2 fold change” value worked out at 0.812.

Turning to RRIRHRPPRLPRPRPRPTNSPRP, the “shrunken log2 fold change” value is -0.258.

For the sequence RRIRIRPPRLPRPRPRPNGDPRP, the “shrunken log2 fold change” value was 8.33e-05.

Regarding RRIRKRPPRLPRPRPRPQWWPRP, the “shrunken log2 fold change” value came out at 0.243.

Consider RRIRRRPPRLPRPRPRPNNVPRP, for which the “shrunken log2 fold change” value was -0.312.

In the case of RRIRGRPPRLPRPRPRPYMMPRP, the “shrunken log2 fold change” value is -0.232.

RRIRSRPPRLPRPRPRPMSHPRP: the “shrunken log2 fold change” value was -0.109.

In the case of RRIRSRPPRLPRPRPRPVQPPRP, the “shrunken log2 fold change” value stood at 0.107.

For RRIRVRPPRLPRPRPRPYFMPRP, the “shrunken log2 fold change” value was -0.797.

With RRIRWRPPRLPRPRPRPFRNPRP, the “shrunken log2 fold change” value was -0.209.

Take RRIRMRPPRLPRPRPRPEFAPRP: the “shrunken log2 fold change” value is 0.679.

For RRIRRRPPRLPRPRPRPTNYPRP, the “shrunken log2 fold change” value was -0.0945.

Regarding RRIRCRPPRLPRPRPRPHLIPRP, the “shrunken log2 fold change” value was 0.282.

Regarding RRIRRRPPRLPRPRPRPFGQPRP, the “shrunken log2 fold change” value is -0.336.

For RRIRRRPPRLPRPRPRPMKSPRP, the “shrunken log2 fold change” value was 0.304.

For the sequence RRIRYRPPRLPRPRPRPNHHPRP, the “shrunken log2 fold change” value is -1.19.

RRIRSRPPRLPRPRPRPKYWPRP: the “shrunken log2 fold change” value is -0.166.

With RRIRIRPPRLPRPRPRPEPMPRP, the “shrunken log2 fold change” value is 0.132.

Consider RRIRNRPPRLPRPRPRPKLDPRP, for which the “shrunken log2 fold change” value was found to be 0.00863.

On to RRIRHRPPRLPRPRPRPAFMPRP, for which the “shrunken log2 fold change” value is -0.193.

Regarding RRIRVRPPRLPRPRPRPSKVPRP, the “shrunken log2 fold change” value is -0.693.

On to RRIRTRPPRLPRPRPRPHKIPRP, for which the “shrunken log2 fold change” value is -0.587.

Consider RRIRVRPPRLPRPRPRPTPPPRP, for which the “shrunken log2 fold change” value was 0.406.

For RRIRSRPPRLPRPRPRPEFIPRP, the “shrunken log2 fold change” value came out at 0.162.

As for RRIRYRPPRLPRPRPRPCYCPRP, the “shrunken log2 fold change” value was -0.185.

For RRIRVRPPRLPRPRPRPNPYPRP, the “shrunken log2 fold change” value was -0.376.

For the sequence RRIRPRPPRLPRPRPRPPEFPRP, the “shrunken log2 fold change” value was -0.122.

Take RRIRSRPPRLPRPRPRPHEMPRP: the “shrunken log2 fold change” value worked out at 0.0637.

With RRIRERPPRLPRPRPRPWNSPRP, the “shrunken log2 fold change” value came to 0.0019.

For the sequence RRIRVRPPRLPRPRPRPPIVPRP, the “shrunken log2 fold change” value stood at 0.0432.

Take RRIRGRPPRLPRPRPRPHLKPRP: the “shrunken log2 fold change” value turned out to be 0.378.

In the case of RRIRVRPPRLPRPRPRPSNFPRP, the “shrunken log2 fold change” value was -0.476.

Turning to RRIRDRPPRLPRPRPRPFWQPRP, the “shrunken log2 fold change” value was determined as 0.0546.

RRIRPRPPRLPRPRPRPCQQPRP: the “shrunken log2 fold change” value was -0.119.

In the case of RRIRARPPRLPRPRPRPMSRPRP, the “shrunken log2 fold change” value is -0.171.

For the sequence RRIRGRPPRLPRPRPRPIFAPRP, the “shrunken log2 fold change” value is 0.609.

Take RRIRPRPPRLPRPRPRPRMYPRP: the “shrunken log2 fold change” value is -0.128.

Turning to RRIRFRPPRLPRPRPRPVKHPRP, the “shrunken log2 fold change” value was -0.222.

For RRIRKRPPRLPRPRPRPMQVPRP, the “shrunken log2 fold change” value was 0.175.

With RRIRGRPPRLPRPRPRPDGPPRP, the “shrunken log2 fold change” value came to 0.155.

With RRIRHRPPRLPRPRPRPYCAPRP, the “shrunken log2 fold change” value was -0.346.

With RRIRNRPPRLPRPRPRPCFTPRP, the “shrunken log2 fold change” value was -0.733.

For RRIRPRPPRLPRPRPRPNFPPRP, the “shrunken log2 fold change” value was determined as 0.0652.

RRIRERPPRLPRPRPRPDGCPRP: the “shrunken log2 fold change” value came to 0.0163.

RRIRIRPPRLPRPRPRPWQVPRP: the “shrunken log2 fold change” value turned out to be 0.0844.

As to RRIRVRPPRLPRPRPRPWGSPRP, the “shrunken log2 fold change” value is -0.137.

As for RRIRGRPPRLPRPRPRPTYLPRP, the “shrunken log2 fold change” value stood at 0.132.

RRIRPRPPRLPRPRPRPEKPPRP: the “shrunken log2 fold change” value is -0.129.

In the case of RRIRPRPPRLPRPRPRPKHDPRP, the “shrunken log2 fold change” value was -0.0113.

RRIRPRPPRLPRPRPRPCRCPRP: the “shrunken log2 fold change” value stood at 0.00981.

Take RRIRQRPPRLPRPRPRPRPWPRP: the “shrunken log2 fold change” value was 0.858.

Take RRIRYRPPRLPRPRPRPASKPRP: the “shrunken log2 fold change” value is -1.29e-05.

Turning to RRIRTRPPRLPRPRPRPPKEPRP, the “shrunken log2 fold change” value is -0.000639.

Turning to RRIRSRPPRLPRPRPRPYQGPRP, the “shrunken log2 fold change” value is -0.129.

As for RRIRPRPPRLPRPRPRPPHKPRP, the “shrunken log2 fold change” value was 0.452.

For RRIRIRPPRLPRPRPRPAETPRP, the “shrunken log2 fold change” value is -0.0338.

In the case of RRIRKRPPRLPRPRPRPVTMPRP, the “shrunken log2 fold change” value was -0.0185.

Turning to RRIRIRPPRLPRPRPRPWSIPRP, the “shrunken log2 fold change” value is -0.211.

As for RRIRWRPPRLPRPRPRPEFEPRP, the “shrunken log2 fold change” value came to 0.0113.

Consider RRIRCRPPRLPRPRPRPKQTPRP, for which the “shrunken log2 fold change” value is -0.0521.

For RRIRFRPPRLPRPRPRPNFTPRP, the “shrunken log2 fold change” value is -0.0305.

For RRIRWRPPRLPRPRPRPLEKPRP, the “shrunken log2 fold change” value came to 0.429.

Regarding RRIRNRPPRLPRPRPRPQDNPRP, the “shrunken log2 fold change” value stood at 0.0553.

As for RRIRSRPPRLPRPRPRPKIRPRP, the “shrunken log2 fold change” value is -0.177.

For the sequence RRIRYRPPRLPRPRPRPHVMPRP, the “shrunken log2 fold change” value is -0.644.

Take RRIRPRPPRLPRPRPRPWMHPRP: the “shrunken log2 fold change” value stood at 0.0123.

As for RRIRLRPPRLPRPRPRPFYLPRP, the “shrunken log2 fold change” value is -0.572.

Take RRIRVRPPRLPRPRPRPKWIPRP: the “shrunken log2 fold change” value is -0.114.

Consider RRIRHRPPRLPRPRPRPGEPPRP, for which the “shrunken log2 fold change” value is -0.0215.

For RRIRSRPPRLPRPRPRPFKHPRP, the “shrunken log2 fold change” value is -0.195.

As for RRIRIRPPRLPRPRPRPMRPPRP, the “shrunken log2 fold change” value was 0.194.

In the case of RRIRFRPPRLPRPRPRPCPYPRP, the “shrunken log2 fold change” value was -0.261.

Turning to RRIRKRPPRLPRPRPRPLFMPRP, the “shrunken log2 fold change” value is -0.0207.

For the sequence RRIRRRPPRLPRPRPRPYCAPRP, the “shrunken log2 fold change” value is -0.0524.

With RRIRYRPPRLPRPRPRPVFKPRP, the “shrunken log2 fold change” value is -0.238.

For RRIRDRPPRLPRPRPRPRRAPRP, the “shrunken log2 fold change” value worked out at 0.691.

As for RRIRDRPPRLPRPRPRPMWTPRP, the “shrunken log2 fold change” value came to 0.217.

As to RRIRQRPPRLPRPRPRPSAWPRP, the “shrunken log2 fold change” value was 0.19.

As to RRIRVRPPRLPRPRPRPMTRPRP, the “shrunken log2 fold change” value was -0.123.

As to RRIRDRPPRLPRPRPRPVNAPRP, the “shrunken log2 fold change” value stood at 0.188.

On to RRIRVRPPRLPRPRPRPPKFPRP, for which the “shrunken log2 fold change” value was 0.133.

Take RRIRARPPRLPRPRPRPVHKPRP: the “shrunken log2 fold change” value turned out to be 0.2.

Consider RRIRKRPPRLPRPRPRPQNAPRP, for which the “shrunken log2 fold change” value was -0.0942.

For the sequence RRIRLRPPRLPRPRPRPDRRPRP, the “shrunken log2 fold change” value was found to be 0.0766.

Regarding RRIRQRPPRLPRPRPRPLSYPRP, the “shrunken log2 fold change” value came to 0.121.

Take RRIRERPPRLPRPRPRPTYQPRP: the “shrunken log2 fold change” value was -0.136.

For the sequence RRIRERPPRLPRPRPRPNSRPRP, the “shrunken log2 fold change” value was -0.481.

With RRIRHRPPRLPRPRPRPTMLPRP, the “shrunken log2 fold change” value was -0.468.

Consider RRIRERPPRLPRPRPRPGKAPRP, for which the “shrunken log2 fold change” value was -0.0498.

For RRIRMRPPRLPRPRPRPMRRPRP, the “shrunken log2 fold change” value amounted to 0.487.

For RRIRMRPPRLPRPRPRPRIAPRP, the “shrunken log2 fold change” value is 0.786.

On to RRIRARPPRLPRPRPRPPVLPRP, for which the “shrunken log2 fold change” value was 0.214.

As to RRIRVRPPRLPRPRPRPMWNPRP, the “shrunken log2 fold change” value is -0.0504.

With RRIRGRPPRLPRPRPRPNCQPRP, the “shrunken log2 fold change” value worked out at 0.458.

Take RRIRGRPPRLPRPRPRPCGCPRP: the “shrunken log2 fold change” value amounted to 1.09.

With RRIRFRPPRLPRPRPRPILHPRP, the “shrunken log2 fold change” value is -0.75.

With RRIRDRPPRLPRPRPRPDQHPRP, the “shrunken log2 fold change” value worked out at 0.132.

Take RRIRMRPPRLPRPRPRPLNFPRP: the “shrunken log2 fold change” value was -0.00433.

In the case of RRIRLRPPRLPRPRPRPIDKPRP, the “shrunken log2 fold change” value was -0.122.

Regarding RRIRWRPPRLPRPRPRPTFWPRP, the “shrunken log2 fold change” value came out at 0.617.

RRIRGRPPRLPRPRPRPRACPRP: the “shrunken log2 fold change” value is 0.847.

Consider RRIRVRPPRLPRPRPRPRDSPRP, for which the “shrunken log2 fold change” value is -0.188.

RRIRCRPPRLPRPRPRPTERPRP: the “shrunken log2 fold change” value is 0.211.

As to RRIRFRPPRLPRPRPRPQSEPRP, the “shrunken log2 fold change” value is 0.00741.

Take RRIRFRPPRLPRPRPRPVHMPRP: the “shrunken log2 fold change” value is -0.0472.

Turning to RRIRERPPRLPRPRPRPCNVPRP, the “shrunken log2 fold change” value was -0.0745.

On to RRIRVRPPRLPRPRPRPETTPRP, for which the “shrunken log2 fold change” value was determined as 0.348.

With RRIRKRPPRLPRPRPRPYACPRP, the “shrunken log2 fold change” value is -0.0471.

In the case of RRIRERPPRLPRPRPRPEVVPRP, the “shrunken log2 fold change” value turned out to be 0.122.

For RRIRIRPPRLPRPRPRPAFGPRP, the “shrunken log2 fold change” value stood at 0.209.

Regarding RRIRSRPPRLPRPRPRPSIPPRP, the “shrunken log2 fold change” value is -0.458.

For the sequence RRIRQRPPRLPRPRPRPAKHPRP, the “shrunken log2 fold change” value was determined as 0.204.

Take RRIRIRPPRLPRPRPRPFAEPRP: the “shrunken log2 fold change” value was -0.221.

As to RRIRDRPPRLPRPRPRPQLWPRP, the “shrunken log2 fold change” value amounted to 0.92.

For the sequence RRIRERPPRLPRPRPRPLYHPRP, the “shrunken log2 fold change” value was -0.419.

For the sequence RRIRCRPPRLPRPRPRPSFPPRP, the “shrunken log2 fold change” value is -0.608.

For RRIRIRPPRLPRPRPRPITDPRP, the “shrunken log2 fold change” value is -0.0192.

With RRIRWRPPRLPRPRPRPEPMPRP, the “shrunken log2 fold change” value was 0.38.

Source of the values: the supplement of paper PMC9112550, “Optimization of the antimicrobial peptide Bac7 by deep mutational scanning” (BMC Biology, 2022).
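Also: peptides expressed intracellularly from a pBAD plasmid library in pooled LB shake-flask culture, induced with 0.3% L-arabinose, DNA abundance read by NGS, three biological replicates, DESeq2 with apeglm shrinkage.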
